Experimental data from patent publication US20120269822A1 (published 2012).

B1: Aa1 VHH (VHH)
VHH: AVQLVDSGGGTLQAGKSLRLSCAISGLAFDGGAMGSEHRLTAGAMGWFRQAPGKDREFVAAISPRTDETYYAESLEGRFSVSRDAAATMVFLEADNVRLDDTASYYCAADEDVTPRVMGVIPHADHWGQGTLVTVSS
B2: A26 VHH (VHH)
VHH: DVQLVESGGGLVQPGGSLRLSCVVSGLTSTEYAIGWFRQAPGKEREGVACLVVSGHNSGRTHYSAAVKGRFTVSQDDATNTAILHMDNLQPKDTAVYYCAAEVSSGQPAVTTFWEDMYDYWGQGTQVTVSS
B3: A21 VHH (VHH)
VHH: QVQLVESGGGVVQAGGSLRLSCVASGFTIDDYPVAWFRQAPGKEREAVSCIGNRGGTTYYADSVKGRFSISRDDAKDTVYLQMNNLKSEDTAVYYCVKDLGSVGPGAEYDYWGQGTLVTVSS
B4: A19 VHH (VHH)
VHH: EVQLVESGGGLVQPGGSLRLSCAASGFTFSGSAMSWVRQTPGKGLEWVSFISRSGSVTEYADSVKGRFTIARDNAPNTVYLQMNSLKPEDTAVYYCTADSYVDYEDDRLKWHHSWGQGTQVTVSS
B5: Aa8 VHH (VHH)
VHH: AVQLVESGGGLVQAGDSLRLSCTLSGGTFRHYAMSWFRQAPGKERVFVARIDYDGAMKYYADSVKGRFTISRDNAKNTMYLQMNSLKPEDTAVYYCNAHWDYGLGPEWDYWGQGTLVTVSS
B6: Aa11 VHH (VHH)
VHH: QVQLVESGGGLVQAGGSLRLSCAASGRTFSSYAMGWFRQAPGKEREFVAAISWSGGSTYYADSVKGRFTISRDDARNTVTLLMNSLKPEDTAVYFCNAWSLEEQYWGQGTQVTVSS
B7: A23 VHH (VHH)
VHH: AVQLVESGGGAVSPGGSLKLSCTASGLAFNGGAMGSEHRLTAGAMGWFRQAPGKDREFVAAIHPRTNDTYYSGTLEDRFTISIDDAKMTVYLQADSLRLEDTAVYSCAADEDVTPRGMGVIPYAEYWGQGTQVTVSS
B8: Aa6 VHH (VHH)
VHH: AVQLVESGGGLVASGGSLRLSCAASDFKFSDYWMHWIRQAPGKEREFVASIGWNGEITDYEESIEGRFAISRDNNKYTLYLEMRDLIPEDTGLYYCAASSDYRWSRQPFEFENWGQGTQVTVSS
B9: Aa9 VHH (VHH)
VHH: QVQLVESGGGMVQPGGSLRLSCKGSGSVFMFYDMGWYRQAPGNQRELVAVMGPGGNTNYADAVKGRFTVARNIDEDTVSLLMTNLEPEDTAVYYCAADFDTPWGASGRYDYWGQGTQVTVSS

Assays:
[1] = target: T1, BoNT/A Lc448, truncated botulinum neurotoxin serotype A light chain containing residues 1-448 (Clostridium botulinum, UniProt P0DPI0 1-448)
T1 sequence (P0DPI0 1-448 limits assumed): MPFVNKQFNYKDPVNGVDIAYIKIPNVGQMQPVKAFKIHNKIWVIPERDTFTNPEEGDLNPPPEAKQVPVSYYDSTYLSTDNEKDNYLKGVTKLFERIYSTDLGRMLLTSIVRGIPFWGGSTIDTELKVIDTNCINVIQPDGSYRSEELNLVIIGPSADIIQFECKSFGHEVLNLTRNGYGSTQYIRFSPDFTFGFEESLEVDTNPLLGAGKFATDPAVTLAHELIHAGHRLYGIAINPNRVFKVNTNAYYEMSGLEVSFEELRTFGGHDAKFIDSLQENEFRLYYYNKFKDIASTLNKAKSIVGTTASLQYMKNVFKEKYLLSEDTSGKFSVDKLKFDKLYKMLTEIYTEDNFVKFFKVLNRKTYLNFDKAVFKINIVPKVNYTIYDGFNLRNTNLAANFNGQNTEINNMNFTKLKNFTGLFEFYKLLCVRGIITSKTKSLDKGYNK

[2] = target: T1, BoNT/A Lc448, truncated botulinum …; experiment: flow cytometry, yeast-displayed VHH titrated with soluble BoNT/A Lc448
[3] = target: T1, BoNT/A Lc448, truncated botulinum …; experiment: KinExA; calculated as KD × kon
[4] = target: T1, BoNT/A Lc448, truncated botulinum …; experiment: KinExA flow fluorimetry, solution kinetics, purified Aa1 VHH and BoNT/A Lc448
[5] = target: T1, BoNT/A Lc448, truncated botulinum …; experiment: KinExA flow fluorimetry, solution equilibrium, purified Aa1 VHH and BoNT/A Lc448

Binder	Kd [2]	other results
B1	0.03 nM	IC50 (read off the curve) [1]: ~0.1 nM; koff [3]: 0.00666 s⁻¹; kon [4]: 4.39e+07 M⁻¹ s⁻¹; Kd [5]: 0.147 nM
B2	8.7 nM	
B3	60.7 nM	
B4	4.65 nM	
B5	112 nM	
B6	76.1 nM	
B7	16.9 nM	
B8	0.52 nM	
B9	4.08 nM	
